The values that follow are results of earlier work, collected in paper PMC5428663, “Identification of small molecule inhibitors of Interleukin-18” (Scientific Reports, 2017).

In this data set the target is hIL-18. The note with it: read-out: affinity for hIL-18.

B1: hIL-18BP (protein, UniProt O95998 31-194, looked up)
Interleukin-18-binding protein: TPVSQTTTAATASVRSTKDPCPSQPPVFPAAKQCPALEVTWPEVEVPLNGTLSLSCVACSRFPNFSILYWLGNGSFIEHLPGRLWEGSTSRERGSTGTQLCKALVLEQLTPALHSTNFSCVLVDPEQVVQRHVVLAQLWAGLRATLPPTQEALPSSHSSPQQQG
For B1, the Kd was 0.4 nM.
